Consider one substance from patent US20240024477A1.

The target in the test is HLA-E bound RL9 presented on cells with their own HLA-E (RL9 pulsed autologous B cells (human; HIV-1) (UniProt P13747). The test is described as follows: cell-based or functional assay.

In the case of “irrelevant TCR specific for HLAA*0201-NY-ESO-1157-165 (…) (IG4), transduced into CD8 T cells”, the reduction of % p24+ cells, HIV-1 NL4.3-infected primary CD4+ T cells, E:T 5:1 came to 23.5%.
